# Reference: IntAct's records for PubMed 26031419
# B1: Glucocorticoid receptor (Homo sapiens), P04150-1 (parent)
# chain: MDSKESLTPGREENPSSVLAQERGDVMDFYKTLRGGATVKVSASSPSLAVASQSDSKQRRLLVDFPKGSVSNAQQPDLSKAVSLSMGLYMGETETKVMGNDLGFPQQGQISLSSGETDLKLLEESIANLNRSTSVPENPKSSASTAVSAAPTEKEFPKTHSDVSSEQQHLKGQTGTNGGNVKLYTTDQSTFDILQDLEFSSGSPGKETNESPWRSDLLIDENCLLSPLAGEDDSFLLEGNSNEDCKPLILPDTKPKIKDNGDLVLSSPSNVTLPQVKTEKEDFIELCTPGVIKQEKLGTVYCQASFPGANIIGNKMSAISVHGVSTSGGQMYHYDMNTASLSQQQDQKPIFNVIPPIPVGSENWNRCQGSGDDNLTSLGTLNFPGRTVFSNGYSSPSMRPDVSSPPSSSSTATTGPPPKLCLVCSDEASGCHYGVLTCGSCKVFFKRAVEGQHNYLCAGRNDCIIDKIRRKNCPACRYRKCLQAGMNLEARKTKKKIKGIQQATTGVSQETSENPGNKTIVPATLPQLTPTLVSLLEVIEPEVLYAGYDSSVPDSTWRIMTTLNMLGGRQVIAAVKWAKAIPGFRNLHLDDQMTLLQYSWMFLMAFALGWRSYRQSSANLLCFAPDLIINEQRMTLPCMYDQCKHMLYVSSELHRLQVSYEEYLCMKTLLLLSSVPKDGLKSQELFDEIRMTYIKELGKAIVKREGNSSQNWQRFYQLTKLLDSMHEVVENLLNYCFQTFLDKTMSIEFPEMLAEIITNQIPKYSNGNIKKLLFHQK
# Variants of: B1
# Details: with ncoa2_mouse Ncoa2, Q61026
# Chain of ncoa2_mouse Ncoa2, Q61026 (Q61026 whole entry): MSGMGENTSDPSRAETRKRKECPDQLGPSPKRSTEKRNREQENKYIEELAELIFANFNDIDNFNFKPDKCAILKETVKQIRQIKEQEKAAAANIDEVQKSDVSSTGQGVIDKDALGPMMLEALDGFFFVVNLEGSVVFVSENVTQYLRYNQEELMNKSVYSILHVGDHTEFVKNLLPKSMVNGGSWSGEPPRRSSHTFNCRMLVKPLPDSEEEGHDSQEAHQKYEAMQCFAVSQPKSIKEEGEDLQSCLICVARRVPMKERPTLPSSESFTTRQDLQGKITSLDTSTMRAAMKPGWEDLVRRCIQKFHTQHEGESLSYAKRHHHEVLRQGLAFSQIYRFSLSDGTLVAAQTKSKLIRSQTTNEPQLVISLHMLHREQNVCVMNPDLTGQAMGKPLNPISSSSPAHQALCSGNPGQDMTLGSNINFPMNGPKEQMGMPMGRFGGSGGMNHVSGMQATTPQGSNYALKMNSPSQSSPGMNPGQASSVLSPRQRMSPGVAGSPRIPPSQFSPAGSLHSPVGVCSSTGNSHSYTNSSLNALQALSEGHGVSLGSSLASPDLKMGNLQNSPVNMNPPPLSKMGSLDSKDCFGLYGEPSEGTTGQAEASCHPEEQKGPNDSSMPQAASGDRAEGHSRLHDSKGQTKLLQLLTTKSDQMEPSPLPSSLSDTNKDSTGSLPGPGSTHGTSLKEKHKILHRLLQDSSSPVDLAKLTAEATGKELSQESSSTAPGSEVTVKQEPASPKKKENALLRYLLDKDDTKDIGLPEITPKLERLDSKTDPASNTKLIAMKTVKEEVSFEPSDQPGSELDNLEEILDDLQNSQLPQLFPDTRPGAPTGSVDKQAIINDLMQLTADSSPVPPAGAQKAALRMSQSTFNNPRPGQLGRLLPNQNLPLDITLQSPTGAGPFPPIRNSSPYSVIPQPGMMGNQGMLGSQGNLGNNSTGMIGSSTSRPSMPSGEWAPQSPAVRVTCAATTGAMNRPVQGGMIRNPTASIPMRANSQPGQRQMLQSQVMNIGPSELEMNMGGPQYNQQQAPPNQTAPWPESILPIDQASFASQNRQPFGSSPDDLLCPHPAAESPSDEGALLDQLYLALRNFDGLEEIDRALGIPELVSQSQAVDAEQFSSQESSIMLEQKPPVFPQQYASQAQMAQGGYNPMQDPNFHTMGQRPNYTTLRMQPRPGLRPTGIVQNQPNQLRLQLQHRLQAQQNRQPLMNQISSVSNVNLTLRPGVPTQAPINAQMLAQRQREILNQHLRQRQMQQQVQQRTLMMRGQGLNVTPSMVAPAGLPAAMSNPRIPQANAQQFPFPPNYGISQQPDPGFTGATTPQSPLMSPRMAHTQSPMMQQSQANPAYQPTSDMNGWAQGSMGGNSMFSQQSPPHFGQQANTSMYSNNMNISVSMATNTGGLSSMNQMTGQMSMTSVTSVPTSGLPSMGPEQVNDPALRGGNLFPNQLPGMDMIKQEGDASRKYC
row,effect of a mutation on the interaction,Variant
1,with no effect,H726R

# Variants of: B1
# Details: with ncoa2_mouse Ncoa2, Q61026
# Remark: another data set of the same source
row,effect of a mutation on the interaction,Variant
1,decreasing interaction strength,H726R
